Experimental data from patent US20040116342A1 (INSTITUT PASTEUR, published 2004).
Where no end group is shown, it is not given here.

Columns and labels:
[1] = molecular target: T1, modified tritiated Substance P: [(3,4 3H) Pro2-Sar9-Met(O2)11]-Substance P, P20366
T1 chain: RPKPQQFFGLM

[2] = molecular target: T2, SMR1-QHNPR (SMR1-Pentapeptide)
T2 chain: QHNPR

[3] = molecular target: T3, purified rabbit renal NEP (rabbit, UniProt P08049 2-750, limits assumed); assay: cell-based or functional assay
T3 sequence (looked up): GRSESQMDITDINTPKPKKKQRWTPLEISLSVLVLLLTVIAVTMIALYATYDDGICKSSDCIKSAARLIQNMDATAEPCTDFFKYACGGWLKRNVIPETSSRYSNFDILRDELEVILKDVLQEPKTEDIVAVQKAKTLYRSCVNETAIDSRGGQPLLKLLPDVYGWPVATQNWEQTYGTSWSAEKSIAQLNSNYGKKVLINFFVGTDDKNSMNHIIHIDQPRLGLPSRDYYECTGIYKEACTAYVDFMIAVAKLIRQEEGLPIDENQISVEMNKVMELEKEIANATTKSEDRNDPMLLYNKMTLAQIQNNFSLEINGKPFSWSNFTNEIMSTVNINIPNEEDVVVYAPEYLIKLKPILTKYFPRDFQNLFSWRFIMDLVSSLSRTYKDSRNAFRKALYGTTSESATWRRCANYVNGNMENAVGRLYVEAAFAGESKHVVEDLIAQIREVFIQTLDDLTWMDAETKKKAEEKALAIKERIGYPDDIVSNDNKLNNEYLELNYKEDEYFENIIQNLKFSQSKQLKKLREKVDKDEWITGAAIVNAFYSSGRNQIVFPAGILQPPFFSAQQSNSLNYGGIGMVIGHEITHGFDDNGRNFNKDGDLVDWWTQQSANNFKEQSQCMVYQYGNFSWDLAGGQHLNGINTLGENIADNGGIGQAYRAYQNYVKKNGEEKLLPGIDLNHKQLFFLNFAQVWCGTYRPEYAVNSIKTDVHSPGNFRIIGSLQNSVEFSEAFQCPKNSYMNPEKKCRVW

[4] = molecular target: T4, rat Neutral EndoPeptidase 24-11 (NEP), membrane-bound, in rat tissue membrane preparations and fresh tissue … (rat, UniProt P07861 2-750); assay: cell-based or functional assay
T4 sequence (looked up): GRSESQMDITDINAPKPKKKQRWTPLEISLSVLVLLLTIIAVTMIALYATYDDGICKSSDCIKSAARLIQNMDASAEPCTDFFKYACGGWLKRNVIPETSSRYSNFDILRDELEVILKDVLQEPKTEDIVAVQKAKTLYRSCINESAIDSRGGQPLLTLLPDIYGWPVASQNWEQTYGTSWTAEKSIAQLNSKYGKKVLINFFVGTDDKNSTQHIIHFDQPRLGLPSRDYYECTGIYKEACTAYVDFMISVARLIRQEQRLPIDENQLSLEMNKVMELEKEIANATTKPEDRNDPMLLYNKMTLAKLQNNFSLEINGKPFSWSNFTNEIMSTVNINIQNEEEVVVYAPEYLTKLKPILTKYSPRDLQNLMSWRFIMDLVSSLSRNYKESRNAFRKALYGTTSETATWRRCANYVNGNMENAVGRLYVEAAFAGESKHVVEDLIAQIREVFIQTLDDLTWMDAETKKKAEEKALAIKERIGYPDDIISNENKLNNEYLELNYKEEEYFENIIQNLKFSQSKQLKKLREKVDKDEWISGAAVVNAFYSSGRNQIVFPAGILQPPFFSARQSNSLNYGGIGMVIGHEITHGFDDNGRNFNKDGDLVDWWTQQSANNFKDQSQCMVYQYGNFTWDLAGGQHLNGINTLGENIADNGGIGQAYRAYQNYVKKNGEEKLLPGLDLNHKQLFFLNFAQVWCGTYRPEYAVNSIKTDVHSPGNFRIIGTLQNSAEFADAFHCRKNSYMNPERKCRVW

B1: purified rabbit renal NEP (protein)
chain: GRSESQMDITDINTPKPKKKQRWTPLEISLSVLVLLLTVIAVTMIALYATYDDGICKSSDCIKSAARLIQNMDATAEPCTDFFKYACGGWLKRNVIPETSSRYSNFDILRDELEVILKDVLQEPKTEDIVAVQKAKTLYRSCVNETAIDSRGGQPLLKLLPDVYGWPVATQNWEQTYGTSWSAEKSIAQLNSNYGKKVLINFFVGTDDKNSMNHIIHIDQPRLGLPSRDYYECTGIYKEACTAYVDFMIAVAKLIRQEEGLPIDENQISVEMNKVMELEKEIANATTKSEDRNDPMLLYNKMTLAQIQNNFSLEINGKPFSWSNFTNEIMSTVNINIPNEEDVVVYAPEYLIKLKPILTKYFPRDFQNLFSWRFIMDLVSSLSRTYKDSRNAFRKALYGTTSESATWRRCANYVNGNMENAVGRLYVEAAFAGESKHVVEDLIAQIREVFIQTLDDLTWMDAETKKKAEEKALAIKERIGYPDDIVSNDNKLNNEYLELNYKEDEYFENIIQNLKFSQSKQLKKLREKVDKDEWITGAAIVNAFYSSGRNQIVFPAGILQPPFFSAQQSNSLNYGGIGMVIGHEITHGFDDNGRNFNKDGDLVDWWTQQSANNFKEQSQCMVYQYGNFSWDLAGGQHLNGINTLGENIADNGGIGQAYRAYQNYVKKNGEEKLLPGIDLNHKQLFFLNFAQVWCGTYRPEYAVNSIKTDVHSPGNFRIIGSLQNSVEFSEAFQCPKNSYMNPEKKCRVW
initial velocity of substance P hydrolysis by purified rabbit renal NEP (Vi) [1]: Vi=140 pM/min/µg enzyme

B2: rat Neutral EndoPeptidase 24-11 (NEP), membrane-bound, in rat tissue membrane preparations and fresh tissue slices (protein)
chain: GRSESQMDITDINAPKPKKKQRWTPLEISLSVLVLLLTIIAVTMIALYATYDDGICKSSDCIKSAARLIQNMDASAEPCTDFFKYACGGWLKRNVIPETSSRYSNFDILRDELEVILKDVLQEPKTEDIVAVQKAKTLYRSCINESAIDSRGGQPLLTLLPDIYGWPVASQNWEQTYGTSWTAEKSIAQLNSKYGKKVLINFFVGTDDKNSTQHIIHFDQPRLGLPSRDYYECTGIYKEACTAYVDFMISVARLIRQEQRLPIDENQLSLEMNKVMELEKEIANATTKPEDRNDPMLLYNKMTLAKLQNNFSLEINGKPFSWSNFTNEIMSTVNINIQNEEEVVVYAPEYLTKLKPILTKYSPRDLQNLMSWRFIMDLVSSLSRNYKESRNAFRKALYGTTSETATWRRCANYVNGNMENAVGRLYVEAAFAGESKHVVEDLIAQIREVFIQTLDDLTWMDAETKKKAEEKALAIKERIGYPDDIISNENKLNNEYLELNYKEEEYFENIIQNLKFSQSKQLKKLREKVDKDEWISGAAVVNAFYSSGRNQIVFPAGILQPPFFSARQSNSLNYGGIGMVIGHEITHGFDDNGRNFNKDGDLVDWWTQQSANNFKDQSQCMVYQYGNFTWDLAGGQHLNGINTLGENIADNGGIGQAYRAYQNYVKKNGEEKLLPGLDLNHKQLFFLNFAQVWCGTYRPEYAVNSIKTDVHSPGNFRIIGTLQNSAEFADAFHCRKNSYMNPERKCRVW
fold rise of the apparent Km of the enzyme for substrate (substance P), rat renal membranes [2]: raising the apparent Km of the enzyme for substrate by 2-5 fold

B3: SMR1-QHNPR (SMR1-Pentapeptide) (peptide)
peptide: QHNPR
modifications: also: Gln form interconverts with pGlu form by N-terminal cyclization
inhibitory potency (IC50) with purified rabbit renal NEP and synthetic specific fluorogenic substrate [3]: 600 nM | IC50 (concentration of the inhibitor reducing by half the degradation of 3H-substance P) on rat spinal cord membrane preparations [4]: ~100 nM | IC50 of inhibition of 3H substance-P degradation by rat kidney membranes [4]: 500 to 1000 nM | inhibitory potency (IC50) with rat spinal NEP [4]: 400 nM
